# Measurements reported in the DeepSol protein solubility set.
# Test: soluble on expression in E. coli; label from the status in PepcDB or PDB records
row,Sequence,soluble on expression in E. coli
1,MGSDKIHHHHHHNEEIEKAVQPVEISFNTAVSKTTRATTLVNSAFTKFTAYAYSTTGAFADATKVNALISGAEFTKGENSAWGSGNSVFYWPATDQVSFFAFSPNTTKQLSWGAAVANTAPTLTYTVEGTVEKQEDLVVAEAMNKQKATSGSTEAVALNFKHALTKVGFKIKGEGSGVTYTLNKIVINAKNKGVYTYGATSTTNETTLGTWTIPSDATATAYTVEPTEALSITGADNGGTANETLVEADYTAMLIPQNLTGVTFEIYYKAEAGGAILCDKTTTPEEITFTDGTWTAGQSVAYVLTLKGVEKMSITGSVADSWDFTETPK,not soluble
2,MSITPHRLPVAPVIVREAYLSLLRKGWRPGDRDLKTPRNVKIETGIIEKAEGSALVKLGKTQVIAGVKAGVGAPFKDTPNQGVLTVHAEFVPLASPVFEPGPPDENAIELARVVDRSLREVGAVDLESLVIRPGEKVWVLWVDLYIIDHDGNLFDASMLATMAVLLTARLPRYEESETGEIIISKEGEGEELKVKTRVVTVTTAKIDRYIVVDPNIEEEAVSDVRLVTAVDENGRIVGLQKTGMGSLTEADIETMIGYSLEASKVYFKALEEAIKP,soluble
3,MGSDKIHHHHHHMFYFTVNNPQDPLSTEIVETNRRDLAFWHRLRPKDDDDLATAINKICVRTGLSRKLIAACLFSICFLPYLPNFHKLVEKLGHLDMARINAITKAGEKVPSEKRELFDAYLVDYLTPRAEAQCLPQASSISAMMRKFIAQHCPDDKASSATNDGSIRYRRNNKGGISITVDATASEVTEIKAALEQMSKDKDCTPGTSLLHIIRGLPTKVVLNTYGTKDSPEYLEGGTWLSKEQSEFWKTRTTSSRDMDAAHFSYTTAYAPTREMRVYIKGLRTTCSVPGCSVAVENCQLDHIIPWGEGGPTTPWNIHPLCVFHHIQKTEGRLQCYPLPDGTVLFLVDGIPVFSIPDGPLSKSNKTWGTKFGKYMERRIAA,not soluble
4,MEAKQRIIPAIKTMKQFDAFLSSGYTVGVLLEVHIAQLKSIFAYARRHGKELIVHVDLVQGLSHDEHAAEYLCQEFRPHGLISTKAGVIMKARQKRVLAVQRIFLLDSHALEKSYQLIAKTNPDCIEVIPGAMPHIIREVKERTGKPIYAGGLIRTVDDVERALAAGAAAVTTSNETLWRHYNG,not soluble
5,MKRSLLACAMSCMMLTVSAHSDFDVRNVDSQFHVPEIGGGVGLIDQQKERQIGEKVFREIQKQMPVVHDPWLQEQYSQIFLRVLAQTSITQPVGLVIIKDPQINAFAVPGGLFALNTGLIANARNIDEVAGVMAHEVAHVTQRHYSRSQEAFKGQGLLALAGILVGAAVATTSNADVGSAVMLGTQAALMDRQLTYSRNQEREADRIGMQYMYAAGYNPQSMADFFETMQRSRVGSSFMPDFWMTHPLTTERMSEARLRANQLPKVETKLYDPNFQLLKWYTLAVSDPSSEKILENVVKQGNKEAQLALGAYYVGQGDFVKAQKQLDDIKSQFNENTLYCLIQTNIYLGQNELDQAYSSIVNIQRAMPESRALAYKLAEVMILQGKAGDTLQLIQPFVNRNPRDLEGWQLMQQASSIDRISPVQTVNTLRYRAEVQFWSGNEENAIKSLLHAQRLAKGNESLSARIDSRLKQMQSDYTMKI,not soluble
6,MNLHEYQAKQLFARYGLPAPVGYACTTPREAEEAASKIGAGPWVVKCQVHAGGRGKAGGVKVVNSKEDIRAFAENWLGKRLVTYQTDANGQPVNQILVEAATDIAKELYLGAVVDRSSRRVVFMASTEGGVEIEKVAEETPHLIHKVALDPLTGPMPYQGRELAFKLGLEGKLVQQFTKIFMGLATIFLERDLALIAINPLVITKQGDLICLDGKLGADGNALFRQPDLREMRDQSQEDPREAQAAQWELNYVALDGNIGCMVNGAGLAMGTMDIVKLHGGEPANFLDVGGGATKERVTEAFKIILSDDKVKAVLVNIFGGIVRCDLIADGIIGAVAEVGVNVPVVVRLEGNNAELGAKKLADSGLNIIAAKGLTDAAQQVVAAVEGK,soluble
7,MADSEADKPLRKISAAFKKLAIIVNSPNPEVPVTQFSHACSLVSPLFGCLGIAFKFAEMDYVAKVDDLVRASSSISTLVVMMDKDIEADCVRKAGSHTRNLLRVKRGLDMVKVLFEQIIASEGDNSLKDPATKSYAQVFAPHHGWAIRKAVSLGMYALPTRAHLLNMLKEDEAAAKIHMQSYVNSSAPLITYLDNLFLSKQLGIDW,not soluble
8,MGSDKIHHHHHHMISVCIATYNGEKYLAEQLDSILLQVSEEDELIISDDGSTDHTLEILRTYAANYPQIQLLQGPGQGVIANFAFALTHTKGEVIFLADQDDVWLPNKVTTVTEYFETHPDIQVVISDLKIVDADLQVTNPSYFKFRKVKPGFWRNAIKSGYIGAGMAFRQEMKNVILPIPPEVPMHDMWIGLLAARKKQTGLIKEPLVLYRRHGANVSPIITKTSFQQKLNWRVNLLKALHQRLKEQR,not soluble
9,MSLDSLYVNDFYKGDRNITKFLKLELEMYDWKLMILHYLGLDHIGHVEGPFSDKVPGKLKEMDKVIKTIYHTMDKWKYYTKPLLVITGDHGMRDSGGHGGSSHAETIVPVVIVSDQCAKSEETFLQIDEGHHHHHH,not soluble
10,MGSDKIHHHHHHEGNATTTSYFLNDQQAIDAIDGLYERFHQEGCYGRELFWEQGAACDIVWGRTRGYNSLATLAYTGDESPLRDVFSRMYSTMSRANWIIQELVKKEKGTTLTAVEKRSLGEAYFSRGWAHYLIAYRYGTDKQGVPFVRYEDFPDDYDNSIPPQQATVMDNYKLIIEDMDKAIAYLPIFESYDADNRGRAHQAAAVAFKAKTYAYWATWDATQWNNVIEMVNQLENNYNRDLAPTFAELFSSDLKDYWNAEYLWTIPSIGGALPGGTEFPGIILENKGWGKYNGWGQMKPSYDIYEEMAKDGKGNDRLVRSILEYNQEFPFFGETRKFWSTSDLEAGFMINKYMDAFKYSDPVGEGAVSANGDWPTVRVNFPIIRFAEMLLFRAEAYLMTGQADKATADINRIRLRSNLTPLTGTATMKDLYHERRCELAFEFTDHLFDLKRWNRSSNADIKTLADKELNAHPRIRRYEDRANPESAFTIIGYEDYTNKNAYQAHMMVFPYPSEEITKSNGQLKQNEGY,not soluble
11,MGSSHHHHHHSSGLVPRGSHMDTKIGLEVHFQLNTGKLFCRCPVEQSSGELMRFSRKLHISASELGNIDAAASYESMRSRSFQYVVTDNSCLVEMDEEPPKTPDERAIATAISVSKALNCDIVDHITYMRKIVIDGSNTTGFQRTAIVGINGHIETSKGPVRISTVCLEEDAARKIEEIGNTVVYSLDRLGIPLIEISTEPDIVDEDHAVEVARSIGYIVISTGNARHAVDAVRQDVNFSMGYGRVEIKGVSKLTQIRDVIRYEKERQENLRAAVDLIKSRGGLDRVSFNLKDVSDLFAGTKSKIIRSGIESGGVYAGILKNMAGTLKNGKLRMGKEIADLVRSYGIKGVMHSDELPGYGLTQDEVEALYRYLGKGDNDAVLLIAINQSRVKMIENSIFDRIQKIISMDLSETRGPAGEETVFLRPMPGKDRMYPETDIPVIKVDSKLMEMSSSIKPRTYAEVVQDLVDRYGISKQNAEYIASEMVVDAFRNIAEFVEAREAARILTQIVPDLERRTKKIIDHDRIIELCRRSKDLHFDRYQLEMALEILYERDDVASVLGDSRLKELSREEIKSIIREILSSGRNATQNSIIALIKEKTERVFDPRVAMECFNEVKNKNNVF,soluble
12,SLAEGLITGTVLTQFDQLYRKKPGMTMSCAKLPQNISKNRYRDISPYDATRVILKGNEDYINANYINMEIPSSSIINQYIACQGPLPHTCTDFWQMTWEQGSSMVVMLTTQVERGRVKCHQYWPEPTGSSSYGCYQVTCHSEEGNTAYIFRKMTLFNQEKNESRPLTQIQYIAWPDHGVPDDSSDFLDFVCHVRNKRAGKEEPVVVHCSAGIGRTGVLITMETAMCLIECNQPVYPLDIVRTMRDQRAMMIQTPSQYRFVCEAILKVYEEGFVKPLTTSTNK,not soluble
13,MREMTADPYLGKYITCVSARSTDKEILKKAQDGGIATALMVYALEEGIIDGTIVAGEGDRPWEPRPIVAMSREDILKARGTKYSISPQIAWLKEATRSFGLDKVGVTGVCCQMQAVRKAQLYPINMRDVPGKVALTVGLFCMENFPYKSLQTIVEDHAAQSLGSVKKMEITKGKFWVHTERGNVSTVPLKATHKYEQPGCHVCLDYVSSLADISTGSVGSPDGWSTVFIRTKKGNEVWSKAVAAGMFETKPIEDVKPGLELLTKLAKEKIDKNRKTLEERRNFGVNKALRDPYAAAALEHHHHHH,not soluble
14,MKILAIINPISGIGSKSNIPSLIADVFAHDPHELFITYSQRAGHARELAAQAVEKHYDCVIAVGGDGTVNEIAQSLRYTDVVLGIVPKGSGNGLARALKLPLTVGKALEVIRAGHVRTIDCCEADSRPFFCTCGLGFDAEVSKKFAQAGSRGPITYARTMIESYLQNEPKEYKLTIDGKSFEEKAFLVTCANAPQYGNNAYIAPLADLEDGKMDVVIIRPFNPLEAPQLALQLFTKRINSNSNLDTYKAENLIIERETEGVMHLDGDPVMFGKRIEIRTYGRSLKVFATETYT,not soluble
15,MAHHHHHHMRRVERSSRGEGEDTLATGEANVRTDTTVDVLRRASRHAQGAIETSWMTTRRLQVQGEQLEEIDRALDKMEHDLGVGDDALRRMTWTGRVKRWFTSRRKQPSDGVESSTSSSVPSSSLPIKPQGLREKNQQREGTRGSKRDDVIGCGSSTSHIAMEEEKLLDALLGDVHAMREQATLQGAMLTEHNRRLDVIATKTDAVHNHVNRTKQKVEKML,soluble
16,RKPEEEPQPIDDSSMQFLLAAKDAVSGGIKQNPDFSAQDLAEKMCMSPSQLNRKLTSVVGCSTIGYIQQIKIKLACKLLADESKNISDISIEAGFSDPAYFSRTFKRYMNCSPSQYRQKLLAMPGSDKETV,not soluble
17,MSLRIYFDKILERASPKVERQALTHVERLAMVRRHGDFSLAYSTAVQQKLSYFGDADGYIAFGTKMKHHFALGDPVAAPARRPDFIKRFVETAGDPWFVQISEETARVLAGLGYKVNRLGIDTSLVLSEHDFSGKRNETVRYSERWLLKKGFSFEEDKRTVFLDEIARLSENWRGDRIVKRWEMGFLNRPFYDQLGTDMRRFVLHGPDGELIALLDFDPLFRDGKVIGYTTAFKRKHIDASPHAEIGLTKFAVDRFREEGISVVTLGLSPLVDVTPSGFAESDFWRNTFQRAYASPWVNRRRFNLQGQAAFKRRFHGKEEPVYIAFRKGTYVEMLGLLRLVKAIEGHHHHHH,not soluble
18,MQRSLFSKFRQILTYKCDWYGKELILADKTYPSTQRCAKCGYVKTGDEKITLQGNQKHGTKHNEYICYKCDYSNDRDENAVLNLLALARLEHHHHHH,not soluble
19,MDYRVLLYYKYVTIDDPETFAAEHLKFCKEHHLKGRILVSTEGINGTLSGTKEDTDKYIEHMHADNRFADLTFKIDEAESHAFKKMHVRPRREIVALDLEEDINPREITGKYYSPKEFKAALEDENTVILDARNDYEYDLGHFRGAIRPDITRFRDLPEWVRNNKEQLDGKNIVTYCTGGIRCEKFSGWLVKEGFENVGQLHGGIATYGKDPETKGQYWDGKMYVFDERISVDVNQIDKTVIGKEHFDGTPCERYINCANPECNKQILVSEENEEKYLGACSYDCAKHERNRYVARHHISNEEWQRRLNNFKDVPEHTHA,not soluble
20,MVKLLTINSHSWMEEDPQKKLEILGKTILENDYDVICVQEVNQLLHSEPAKDLPNYCQVAGTPAIHKDNYALQLVTFLLEQERVYYWSWAYNHIGYDRFQEGVAILSKTPLVSQGILISDVDDEHDYHTRRALLGKTKIDQEDIAIVSLHMSWWNKGFQGEWNKLERVLSNLKLPLLLMGDFNNPYENEGYQAILKSSLKLQDSHQSAKITYGKATIQKEIDGWQGNQEALKVDYVFLSSDWQVEKSEVIFDGKHYPMISDHCGLACQANLNK,not soluble
21,MGLLLYRELVHKLKTKYKKIAGKGENQKDKTLPWHLETDQLTNRHPNHKVRIPYIDEVFDMLAKMTAKNQLTLPKSVTTAVGAGEYFEIEVRNGQIVLTPVRIQRADAVRAKLAELDLGERDIMDAVTWARQPVKGSATE,not soluble
